These results are taken from patent publication US12404607.

What all share (assay): ELISA, antigen coated at 2 ug/mL
On the technique in general: ELISA stands for enzyme-linked immunosorbent assay.

Assay [1] addresses CoV-2 RBD (V367F) (SARS-CoV-2) (UniProt P0DTC2).
In assay [2] the target is CoV-2 RBD (N354D) (SARS-CoV-2) (UniProt P0DTC2).
In assay [3] the target is CoV-2 S (R683A, R685A) (SARS-CoV-2) (UniProt P0DTC2).
For assay [4], the target named is CoV-2 RBD (N354D, D364Y) (SARS-CoV-2) (UniProt P0DTC2).
Assay [5] deals with CoV-2 S (D614G) (SARS-CoV-2) (UniProt P0DTC2).
Assay [6] has as its target CoV-2 RBD (W436R) (SARS-CoV-2) (UniProt P0DTC2).

The EC50 is the concentration at which the effect is half-maximal. On to “SARS CoV-2 mAb [SAD-S35] (Acro Biosystems) (antibody)”, for which the EC50 in assay [1] is 0.04 µg/mL; in assay [2] it was 0.04 µg/mL; in assay [3] it was 0.05 µg/mL; in assay [4], 0.05 µg/mL; in assay [5] it was 0.03 µg/mL; in assay [6], 0.04 µg/mL.
Take “rCIG (recombinant coronavirus-2 immune globulin; recombinant anti-coronavirus 19 hyperimmune gammaglobulin)”: the EC50 in assay [1] was determined as 0.07 µg/mL; in assay [2], 0.07 µg/mL; in assay [3] it was 0.09 µg/mL; in assay [4] it was 0.08 µg/mL; in assay [5] it was 0.05 µg/mL; in assay [6] it was 0.07 µg/mL.
